Assays:
Assay in all cases: direct ELISA on coated antigen
[1] = target: T1, W319-hPro1.ECD.hFc (WT)-P3 (human, UniProt P22223 108-654)
T1 construct: range 108-654; also called Human P-cadherin ECD; not shown: human Fc by the code hFc
Experimental: (§1) The binding of the antibodies to W319-hPro1.D1.ECD.hFc, W319-hPro1.D12.ECD.hFc (WT), W319-hPro1.D123.ECD.hFc (WT), W319-hPro1.D1234.ECD.hFc (WT) (2.5) and W319-hPro1.ECD.hFc (WT)-P3 were tested by a direct protein binding ELISA. 96-well high protein binding ELISA plates (Nunc MaxiSorp, ThermoFisher, Cat #: 442404) were coated overnight at 4° C. with 1 μg/mL antigens in Carbonate-bicarbonate buffer (20 mM Na2CO3, 180 mM NaHCO3, pH=9.2). All wells were washed three time with 300 μL per well of PBS/0.5‰ Tween-20 (v/v) and all the following wash steps in the assay were performed the same. The wells were then blocked for one hour with 2% BSA (Bovogen, Cat #: BSAS)/1×PBS (Ca+/Mg+) (Gibco, #14040-117) and washed three times. For the primary antibody binding, the testing antibodies including the BMKs and our antibodies serially diluted in 2% BSA/1×PBS (Ca+/Mg+) were added to the relevant wells and incubated at room temperature for two hours. Plates were washed three times prior to the addition of 100 μL of secondary antibody Goat anti-Human-IgG-F(ab′)2-HRP (Jackson, Cat #: 109-035-097) 5000-fold diluted in 2% BSA/1×PBS (Ca+/Mg+). Plates were incubated at room temperature for one hour, followed by six washes as describe above.
(§2) For the binding detection, 100 μL Tetramethylbenzidine (TMB) Substrate solution (Invitrogen, Cat #: 002023) was added to all wells for 10 minutes before stopping the reaction with 100 μL 2M HCl. The extent of the testing Abs binding to W319-hPro1.D1.ECD.hFc, W319-hPro1.D12.ECD.hFc (WT), W319-hPro1.D123.ECD.hFc (WT), W319-hPro1.D1234.ECD.hFc (WT) and W319-hPro1.ECD.hFc (WT)-P3 were determined by measuring the OD450 absorbance using the SpectraMax® M5e microplate reader. Wherever appropriate, binding EC50 values were obtained by the four-parameter non-linear regression analysis using GraphPad Prism 5 software.
(§3) Its binding epitope is different from BMKs.

[2] = target: T2, W319-hPro1.D1234.ECD.hFc (WT) (human, UniProt P22223 108-550)
T2 construct: range 108-550; also called Human P-cadherin ECD domain 1&2&3&4; domain 1-4; not shown: human Fc by the code hFc
T2 sequence (P22223 108-550): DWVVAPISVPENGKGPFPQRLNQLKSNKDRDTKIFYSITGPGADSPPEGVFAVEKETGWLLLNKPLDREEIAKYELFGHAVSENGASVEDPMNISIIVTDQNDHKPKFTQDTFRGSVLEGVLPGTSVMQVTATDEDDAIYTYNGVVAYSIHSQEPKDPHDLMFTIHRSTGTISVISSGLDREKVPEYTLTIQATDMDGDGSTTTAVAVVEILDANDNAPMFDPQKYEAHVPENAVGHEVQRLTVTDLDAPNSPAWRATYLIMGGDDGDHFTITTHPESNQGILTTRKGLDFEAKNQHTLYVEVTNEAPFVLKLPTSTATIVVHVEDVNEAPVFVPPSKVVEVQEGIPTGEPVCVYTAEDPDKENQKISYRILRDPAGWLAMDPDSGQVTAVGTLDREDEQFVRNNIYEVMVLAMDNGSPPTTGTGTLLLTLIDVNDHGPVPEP
Experimental: as §1, §2, §3

[3] = target: T3, W319-hPro1.D12.ECD.hFc (WT) (human, UniProt P22223 108-348)
T3 construct: range 108-348; also called Human P-cadherin ECD domain 1&2; domain 1-2; not shown: human Fc by the code hFc
T3 sequence (P22223 108-348): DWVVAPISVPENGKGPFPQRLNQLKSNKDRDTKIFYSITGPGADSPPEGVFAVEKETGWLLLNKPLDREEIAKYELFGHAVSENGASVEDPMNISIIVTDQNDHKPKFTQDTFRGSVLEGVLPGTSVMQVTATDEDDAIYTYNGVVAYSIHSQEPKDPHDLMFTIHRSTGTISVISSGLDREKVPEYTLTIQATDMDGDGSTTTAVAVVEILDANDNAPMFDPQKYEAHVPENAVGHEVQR
Experimental: as §1, §2, §3

[4] = target: T4, W319-hPro1.D1.ECD.hFc (human, UniProt P22223 108-236)
T4 construct: range 108-236; also called Human P-cadherin ECD domain 1; not shown: human Fc by the code hFc
T4 sequence (P22223 108-236): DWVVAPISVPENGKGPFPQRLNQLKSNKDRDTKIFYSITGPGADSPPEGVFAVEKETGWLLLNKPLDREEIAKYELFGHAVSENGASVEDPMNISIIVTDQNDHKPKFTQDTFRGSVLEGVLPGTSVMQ
Experimental: as §1, §2, §3

[5] = target: T5, W319-hPro1.D123.ECD.hFc (WT) (human, UniProt P22223 108-461)
T5 construct: range 108-461; also called Human P-cadherin ECD domain 1&2&3; domain 1-3; not shown: human Fc by the code hFc
T5 sequence (P22223 108-461): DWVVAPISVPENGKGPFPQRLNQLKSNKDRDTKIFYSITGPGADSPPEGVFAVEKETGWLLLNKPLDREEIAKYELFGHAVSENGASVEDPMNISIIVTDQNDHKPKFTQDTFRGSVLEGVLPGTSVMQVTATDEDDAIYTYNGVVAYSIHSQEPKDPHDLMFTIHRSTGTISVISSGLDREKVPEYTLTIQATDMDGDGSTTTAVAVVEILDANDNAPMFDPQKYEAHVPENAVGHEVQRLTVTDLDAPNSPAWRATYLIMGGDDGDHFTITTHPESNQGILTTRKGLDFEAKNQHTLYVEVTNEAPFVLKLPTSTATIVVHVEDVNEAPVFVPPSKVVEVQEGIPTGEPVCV
Experimental: as §1, §2, §3

T1 sequence (P22223 108-654): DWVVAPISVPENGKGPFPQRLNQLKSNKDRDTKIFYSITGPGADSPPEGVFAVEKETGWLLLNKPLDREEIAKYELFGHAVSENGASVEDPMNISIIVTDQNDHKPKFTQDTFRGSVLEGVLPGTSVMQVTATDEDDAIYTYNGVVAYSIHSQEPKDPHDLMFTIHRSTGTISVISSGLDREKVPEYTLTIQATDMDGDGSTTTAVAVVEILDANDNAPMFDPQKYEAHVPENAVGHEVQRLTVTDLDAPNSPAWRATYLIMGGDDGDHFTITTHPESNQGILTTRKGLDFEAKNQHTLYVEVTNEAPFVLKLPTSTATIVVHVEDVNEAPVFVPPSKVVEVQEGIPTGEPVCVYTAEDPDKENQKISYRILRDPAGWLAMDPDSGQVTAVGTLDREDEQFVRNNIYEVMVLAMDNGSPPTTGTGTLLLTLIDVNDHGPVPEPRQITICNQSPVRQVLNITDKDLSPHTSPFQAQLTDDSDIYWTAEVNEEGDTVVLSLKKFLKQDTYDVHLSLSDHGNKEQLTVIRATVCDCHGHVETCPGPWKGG

EC50 [1]: 0.14 nM
Max OD450 [1]: 2.88
EC50 [2]: 0.087 nM
Max OD450 [2]: 2.88
Max OD450 [3]: 0.08
Max OD450 [4]: 0.07
EC50 [5]: 0.08 nM
Max OD450 [5]: 2.83
B1: W3195-1.53.1-p1-uIgG1L (antibody)
heavy: not shown
light: SYELTQPPSVSVSPGQTAQITCSGDKLGDKFASWYQQKSGQSPVVVIYQDNKRPSGFPERFSGSNSGNTATLTISGTQAMDEADYYCQAWDSSIVVFGGGTKLTVLGQPKAAPSVTLFPPSSEELQANKATLVCLISDFYPGAVTVAWKADSSPVKAGVETTTPSKQSNNKYAASSYLSLTPEQWKSHRSYSCQVTHEGSTVEKTVAPTECS
notes: also called W3195-p1 antibody

Reference: patent US20240034786A1 (WUXI BIOLOGICS IRELAND, published 2024)
